{
  "source": "the NTF2 design screens of Basanta et al. (2020)",
  "data": [
    {"test": "protease stability score; higher = more stable; yeast display proteolysis, trypsin and chymotrypsin;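 further: relative to predicted unfolded state with 0 unfolded-like and 1 meaning tenfold more protease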", "values": [
      {"sequence": "DEEEKDAKEIFRLSHDWWRTGDEMLIHMNFDPNVRLRIGDKSSHGREDVARIIVKVYKDFGVKHFEIREVDHQGEKIKLDGVSNFNGKEVKIEISSNKVNGVWVIKEVNIQ", "protease stability score": 1.11},
      {"sequence": "DDDHLRKVEDFMRAQLEGDPDRLKQLADPNVRMNVGEKKVHGMQDIATEQASTYKTARYEIKSLDSKTEGDKVVITMRVQADNNGQPHDETFHLKARLENGKIVEQSKENDG", "protease stability score": -0.531},
      {"sequence": "DEEEELIKHHLELHLEAVKTGDEEHLHRNMDPNVRLHVNGQDRHGREDVSTLLREIRLKDFKIHDVDIQGNKMRFDGFILGEINGREHNVHTTIYAEKVDGRWLIRHFEIR", "protease stability score": 1.04},
      {"sequence": "SEEEKYFEHWLKILLQNMHTGNEENLKRLADPTYRLHIGDKNFIGREMFLDSMRRIDHFDDAKLKSIETYGDYVHAEIDHDGRVDGRKIRVNTILLTLKVDGRWIVHSFKIE", "protease stability score": 0.827},
      {"sequence": "SEDERQSEHMNRLIFESLETGDFHKLMRLMDPHARAVVDGREVHGMELLEEILKRIKDELGVTRIRTRIRTERTQGNKADNITEYEIGDKSFTVIIHNQKIDGRWVIHEVRFE", "protease stability score": 1.24},
      {"sequence": "SEELEHAERLDRMIAKAYSTGDEDVFRELLDPHVKIHDEDHHSHGMEWIRYHIERFKNVRSSVEVRRYHVQGNKIFSDGVFRLQVGDKDITRRVLFVVLKVDGRWIMESIHIE", "protease stability score": 1.08},
      {"sequence": "DERKEDLDRALEEFLRSVETGDEELNERLADPNVKLVIDGVKYHGMEFIVKQLDEWRIHDMRIRRIRNVGEKVYVDLSVDGNFNGRRYRTEVKIVFTKINGRWLLETHIVD", "protease stability score": 1.87},
      {"sequence": "SELDTLVEEVAEIIVKYLITGDEDSLLKMLDPNMRTDINGREIHGREVTHEFLRQEKERLGVSRIQMRLESFRVQGDKIIIHGTLHYNGKDFEVIVIIIVWNGRIREIRIEIR", "protease stability score": 1.4},
      {"sequence": "DEDEEMVEKALELMAETHETGDEDTLHDFFDPHTRMELQIGDKTIRDHGRHAMHWLLRILGINHIEIHHRTVRLINGRIHLHINGSINVNGQEIESRIHIYSEKIDGRWRVTRLEYRFH", "protease stability score": 1.31},
      {"sequence": "SEDHENLRKSLEFFKHVVDTGDFRKLLQLADPNTRIIINGQTVHGMELTQKIWIHQFREAGHTRIHIRIEDIDVQGDKIQIDGKLDINGQERDTNLFIEKVNGRWIIRSIEFQ", "protease stability score": 1.38},
      {"sequence": "SEDERDMERFNRLVSHAMETGDEDTLNHLADPNVRVHIGDKDLHGREDYSRWLHELIRRVDYMEVHIHDERLQGDKAIVDSRIRLKFDGVETRIETILYLKKFDGRWRMTTFELK", "protease stability score": 0.705},
      {"sequence": "DDYDHITELALREIERVLHTGDEEDLRRMIDPHVRIDIDGKDIHGWENLFKHIEEERRRFPNLQIDWELKDTRKQGDKIILHGQIHIQQGDKEIERDFTIKAVKINGQWIVKTFHIR", "protease stability score": 1.63},
      {"sequence": "TEDEEYVKHIIDLFWHVKKTGDESHMKELADPNVRIEVDGRDIIGMEDVLKWEKDHREKIKGIRLNVHQWRIIGNKVESDLIVNINGVTIEFHVTVIIVNGKLHSLRVEFE", "protease stability score": 1.21},
      {"sequence": "SDYEKEVLDYAHTFLHAFLTGNEFILLKLLDPHVRIEIHFDGVDFLRHGRETFSKRAVDHIREWRVEIRLHDLHVVDGVVHLNTRLHVDYGDKHIHITQHITLFVINGRMKTVHIRHE", "protease stability score": 1.26},
      {"sequence": "SEHEEDFKKATHEILEIWETGDEHRMSEYLDPNTRLSIDGKNIHGREKVEEILRRHWERLGIDHLRIKDLRVHTIDGRMHLDILVRFHYNGVTIDVHLHFNLIKIDGKWYIRSILEIDR", "protease stability score": 0.418},
      {"sequence": "SEEDKTALEMFERLIHAWLTGDEDEMRRMADPHVKIDKEFENHEVQFHGREDFVRWVIEVRDRIDHLEIRNHSIRTWNGVVHVHTTLFLNYDGKLFILRTEFRLFVIDGRLREERFMLH", "protease stability score": 0.282},
      {"sequence": "SEEEEWIIKVLRELTKSMETGDEDHLHHLADPDVRLHVGDKEFHGREDFKKWYTHLRIKHFELTDMRIQGEKAHLKVRVHMRYGDKEDRKEVDFTMIKIDGRWYLHSVHVR", "protease stability score": 2.09},
      {"sequence": "DHVDEETEKMTNEITKALLTGDEDRLLELADPHVRVIVHVGDKTIHLVGRELMVEEYRRWVKEAGFDKVHHEKKHSDFVDGRAEVHSKVDVGDKHVEYRIIITKVNGKWVIKSIIIIVR", "protease stability score": 2.15},
      {"sequence": "SEEEQLVQSAIEITVEALQTGDEHKIREMLDPHVKVRINGQDTHGWEVMEVFMKELGIKHIRVHIEHVNVQGEKVEVKGRVIINFNGRHYEREHWIIIFKIDGRWVNDSIEYI", "protease stability score": 2.12},
      {"sequence": "THEEEQARRALKHLIELEKTGDEEKWSHLADPNVRMEINGRQVHGRETIRKIYHEWRRKLGVNHIHHIEIKHIDIQGEKLRVEMHVNSQYGDKTLLIETEIELDKIDGKWIITMHYER", "protease stability score": 1.15}
    ]}
  ]
}
